# Results as given in the supplement of paper PMC9112550, “Optimization of the antimicrobial peptide Bac7 by deep mutational scanning” (BMC Biology, 2022).
# Tested on: Escherichia coli TOP10
# Assay: shrunken log2 fold change of peptide-encoding DNA abundance (4.5 h post-induction vs induction); higher = less antimicrobial activity (less host growth inhibition)
# Settings: time post-induction: 4.5 h; library: site-saturation at positions 5, 18, 19, 20
# 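Also: peptides expressed intracellularly from a pBAD plasmid library in pooled LB shake-flask culture, induced with 0.3% L-arabinose, DNA abundance read by NGS, three biological replicates, DESeq2 with apeglm shrinkage.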
row,Sequence,shrunken log2 fold change
1,RRIRQRPPRLPRPRPRPNDMPRP,-0.296
2,RRIRPRPPRLPRPRPRPPIFPRP,-0.246
3,RRIRERPPRLPRPRPRPRPAPRP,0.434
4,RRIRNRPPRLPRPRPRPWHTPRP,-0.0681
5,RRIRLRPPRLPRPRPRPDANPRP,0.0586
6,RRIRERPPRLPRPRPRPTEMPRP,0.0983
7,RRIRSRPPRLPRPRPRPEAIPRP,0.748
8,RRIRNRPPRLPRPRPRPIWTPRP,-0.115
9,RRIRYRPPRLPRPRPRPCKHPRP,-0.0625
10,RRIRLRPPRLPRPRPRPEFPPRP,-0.0973
11,RRIRSRPPRLPRPRPRPLKGPRP,0.0623
12,RRIRIRPPRLPRPRPRPPVWPRP,0.187
13,RRIRSRPPRLPRPRPRPDVYPRP,-0.0361
14,RRIRQRPPRLPRPRPRPPQFPRP,0.076
15,RRIRLRPPRLPRPRPRPYNWPRP,-0.0937
16,RRIRERPPRLPRPRPRPNYQPRP,-0.812
17,RRIRLRPPRLPRPRPRPRKTPRP,0.0104
18,RRIRQRPPRLPRPRPRPCWWPRP,0.0676
19,RRIRNRPPRLPRPRPRPQDEPRP,0.00847
20,RRIRYRPPRLPRPRPRPKPMPRP,0.0517
21,RRIRFRPPRLPRPRPRPHAGPRP,-0.024
22,RRIRGRPPRLPRPRPRPMQGPRP,0.0711
23,RRIRCRPPRLPRPRPRPFFKPRP,-0.197
24,RRIRMRPPRLPRPRPRPYPCPRP,0.0288
25,RRIRWRPPRLPRPRPRPDCIPRP,0.0529

row,Sequence,shrunken log2 fold change
1,RRIRIRPPRLPRPRPRPPYLPRP,-0.612
2,RRIRDRPPRLPRPRPRPQTSPRP,0.117
3,RRIRIRPPRLPRPRPRPFNQPRP,-0.977
4,RRIRVRPPRLPRPRPRPHIPPRP,-0.602
5,RRIRRRPPRLPRPRPRPGILPRP,-0.174
6,RRIRTRPPRLPRPRPRPCAVPRP,-0.262
7,RRIRLRPPRLPRPRPRPSLAPRP,0.13
8,RRIRQRPPRLPRPRPRPALQPRP,0.145
9,RRIRYRPPRLPRPRPRPKISPRP,-0.134
10,RRIRQRPPRLPRPRPRPMAQPRP,0.006
11,RRIRWRPPRLPRPRPRPQKLPRP,0.0774
12,RRIRKRPPRLPRPRPRPFVFPRP,0.277
13,RRIRFRPPRLPRPRPRPFPDPRP,-0.137
14,RRIRYRPPRLPRPRPRPNEHPRP,-0.268
15,RRIRDRPPRLPRPRPRPHCRPRP,-0.123
16,RRIRFRPPRLPRPRPRPFFLPRP,-0.32
17,RRIRFRPPRLPRPRPRPFWNPRP,-0.00687
18,RRIRLRPPRLPRPRPRPMEIPRP,-0.00427
19,RRIRTRPPRLPRPRPRPNECPRP,-0.0286
20,RRIRFRPPRLPRPRPRPSYGPRP,-0.37
21,RRIRYRPPRLPRPRPRPGPAPRP,0.0198
22,RRIRVRPPRLPRPRPRPNRAPRP,0.202
23,RRIRTRPPRLPRPRPRPKWPPRP,1.51
24,RRIRNRPPRLPRPRPRPIIWPRP,-0.139
25,RRIRMRPPRLPRPRPRPPFFPRP,0.528

row,Sequence,shrunken log2 fold change
1,RRIRERPPRLPRPRPRPMEMPRP,0.0606
2,RRIRPRPPRLPRPRPRPMMGPRP,0.0538
3,RRIRKRPPRLPRPRPRPEHDPRP,0.169
4,RRIRERPPRLPRPRPRPCFPPRP,-0.166
5,RRIRGRPPRLPRPRPRPACMPRP,0.671
6,RRIRDRPPRLPRPRPRPCWRPRP,0.101
7,RRIRFRPPRLPRPRPRPKYSPRP,-0.14
8,RRIRCRPPRLPRPRPRPQMWPRP,0.0606
9,RRIRIRPPRLPRPRPRPQKDPRP,-0.421
10,RRIRYRPPRLPRPRPRPGWWPRP,0.316
11,RRIRIRPPRLPRPRPRPHTGPRP,-0.356
12,RRIRQRPPRLPRPRPRPQRDPRP,0.0969
13,RRIRWRPPRLPRPRPRPEEVPRP,-0.0142
14,RRIRWRPPRLPRPRPRPNEGPRP,-0.0387
15,RRIRNRPPRLPRPRPRPTEYPRP,-0.203
16,RRIRIRPPRLPRPRPRPLKKPRP,-0.094
17,RRIRERPPRLPRPRPRPVQAPRP,0.014
18,RRIRKRPPRLPRPRPRPQFPPRP,-0.00782
19,RRIRCRPPRLPRPRPRPTDTPRP,-0.438
20,RRIRVRPPRLPRPRPRPEKTPRP,0.0303
21,RRIRLRPPRLPRPRPRPGYFPRP,-0.347
22,RRIRIRPPRLPRPRPRPNHRPRP,0.0615
23,RRIRPRPPRLPRPRPRPIDSPRP,-0.018
24,RRIRNRPPRLPRPRPRPDFDPRP,-0.0771
25,RRIRTRPPRLPRPRPRPIQPPRP,0.00206

row,Sequence,shrunken log2 fold change
1,RRIRPRPPRLPRPRPRPCWFPRP,-0.0933
2,RRIRNRPPRLPRPRPRPSIKPRP,-0.0594
3,RRIRMRPPRLPRPRPRPKHLPRP,0.142
4,RRIRVRPPRLPRPRPRPQYEPRP,-0.174
5,RRIRSRPPRLPRPRPRPNQNPRP,-0.274
6,RRIRSRPPRLPRPRPRPYERPRP,-0.0323
7,RRIRKRPPRLPRPRPRPTTKPRP,-0.0244
8,RRIRMRPPRLPRPRPRPYEHPRP,-0.291
9,RRIRTRPPRLPRPRPRPAYEPRP,0.164
10,RRIRSRPPRLPRPRPRPKEEPRP,0.0302
11,RRIRLRPPRLPRPRPRPQVEPRP,0.0591
12,RRIRWRPPRLPRPRPRPWDNPRP,-0.00804
13,RRIRCRPPRLPRPRPRPCQDPRP,-0.178
14,RRIRTRPPRLPRPRPRPKYRPRP,-0.135
15,RRIRIRPPRLPRPRPRPQWTPRP,-0.0472
16,RRIRFRPPRLPRPRPRPDPKPRP,0.117
17,RRIRFRPPRLPRPRPRPTTGPRP,-0.0819
18,RRIRVRPPRLPRPRPRPQQVPRP,-0.0278
19,RRIRPRPPRLPRPRPRPLHRPRP,-0.284
20,RRIRRRPPRLPRPRPRPMKFPRP,0.212
21,RRIRQRPPRLPRPRPRPPYLPRP,-0.289
22,RRIRHRPPRLPRPRPRPLRCPRP,0.0647
23,RRIRNRPPRLPRPRPRPRYPPRP,-0.121
24,RRIRDRPPRLPRPRPRPGTEPRP,0.974
25,RRIRYRPPRLPRPRPRPHAIPRP,-0.268

row,Sequence,shrunken log2 fold change
1,RRIRCRPPRLPRPRPRPGKPPRP,0.506
2,RRIRYRPPRLPRPRPRPLIDPRP,-0.00288
3,RRIRCRPPRLPRPRPRPPKGPRP,0.405
4,RRIRYRPPRLPRPRPRPSTGPRP,-0.0197
5,RRIRDRPPRLPRPRPRPTTTPRP,0.654
6,RRIRDRPPRLPRPRPRPPFMPRP,0.042
7,RRIRVRPPRLPRPRPRPDYVPRP,-0.406
8,RRIRLRPPRLPRPRPRPYNYPRP,-0.439
9,RRIRRRPPRLPRPRPRPCGNPRP,0.0466
10,RRIRCRPPRLPRPRPRPFYKPRP,0.979
11,RRIRFRPPRLPRPRPRPNGYPRP,-0.3
12,RRIRFRPPRLPRPRPRPIKTPRP,-0.0134
13,RRIRCRPPRLPRPRPRPHLTPRP,-0.229
14,RRIRPRPPRLPRPRPRPVMPPRP,0.188
15,RRIRSRPPRLPRPRPRPIAVPRP,0.22
16,RRIRDRPPRLPRPRPRPVNPPRP,0.342
17,RRIRARPPRLPRPRPRPPMPPRP,0.405
18,RRIRGRPPRLPRPRPRPCLNPRP,0.165
19,RRIRCRPPRLPRPRPRPRENPRP,0.439
20,RRIRGRPPRLPRPRPRPVWYPRP,0.196
21,RRIRFRPPRLPRPRPRPEVDPRP,0.084
22,RRIRMRPPRLPRPRPRPYGTPRP,-0.411
23,RRIRHRPPRLPRPRPRPPHTPRP,0.249
24,RRIRLRPPRLPRPRPRPPQGPRP,1.27
25,RRIRMRPPRLPRPRPRPDFKPRP,-0.11

row,Sequence,shrunken log2 fold change
1,RRIRHRPPRLPRPRPRPEPPPRP,0.545
2,RRIRWRPPRLPRPRPRPWDIPRP,-0.309
3,RRIRIRPPRLPRPRPRPQQHPRP,-0.551
4,RRIRERPPRLPRPRPRPRMNPRP,0.0757
5,RRIRCRPPRLPRPRPRPKLKPRP,-0.16
6,RRIRDRPPRLPRPRPRPFESPRP,-0.00133
7,RRIRVRPPRLPRPRPRPYHAPRP,-0.00207
8,RRIRWRPPRLPRPRPRPHAHPRP,0.0336
9,RRIRIRPPRLPRPRPRPDAEPRP,0.874
10,RRIRKRPPRLPRPRPRPNMIPRP,0.0348
11,RRIRERPPRLPRPRPRPNESPRP,0.0842
12,RRIRHRPPRLPRPRPRPTVNPRP,-0.144
13,RRIRYRPPRLPRPRPRPSEYPRP,-0.431
14,RRIRRRPPRLPRPRPRPTVTPRP,0.144
15,RRIRWRPPRLPRPRPRPASDPRP,0.342
16,RRIRIRPPRLPRPRPRPPCQPRP,0.0801
17,RRIRYRPPRLPRPRPRPHQYPRP,-0.402
18,RRIRDRPPRLPRPRPRPAITPRP,0.284
19,RRIRFRPPRLPRPRPRPHMKPRP,-0.585
20,RRIRIRPPRLPRPRPRPHWGPRP,-0.175
21,RRIRQRPPRLPRPRPRPQRRPRP,0.0498
22,RRIRMRPPRLPRPRPRPYREPRP,-0.0131
23,RRIRNRPPRLPRPRPRPGSNPRP,-0.0081
24,RRIRFRPPRLPRPRPRPTVHPRP,-0.238
25,RRIRERPPRLPRPRPRPVNRPRP,-0.294
